In patent US20030114404, “Vascular endothelial growth factor (VEGF) nucleic acid ligand complexes” (Gilead Sciences, Inc., published 2003):

Tests used:
[1] = target: T1, VEGF165 (Homo sapiens, UniProt P15692-4 P15692-4:27-191); assay: filter; s.d. 11; text gives 49 pM; 37 C; calcium required; conditions: tags: carrier-free, Sf 21 insect cell expressed, R & D Systems; chain copies: 2 (inferred)
Method: (§1) Nucleic Acid Ligands radiolabeled during transcription by incorporation of α-[³²P]-labeled NTPs, or after synthesis using γ-[³²P]-ATP and T4 polynucleotide kinase, were incubated in low concentration (between 20 and 70 pM) with varying concentrations of VEGF or other growth factors at 37° C. for 15 minutes. Incubations were in TBS, PBS, or HEPES-buffered saline (HBS), pH 7.4, with or without the addition of supplemental divalent cations. Samples were passed through prewashed 0.45 μ Type HA filters (Millipore) followed by a 5-10 ml wash with binding buffer. Filters were immersed in scintillant and counted to quantitate the amount of protein-bound RNA retained by each filter. The equilibrium dissociation constant (KD) of Nucleic Acid Ligand binding to a specific protein was calculated from the data points as described in Green et al. (1996) Biochem. 35: 14413-14424.
(§2) 2′OH nucleotides are indicated in bold, and 2′OMe nucleotides are indicated in plain text.

[2] = target: T2, VEGF164 (Mus musculus, UniProt Q00731-2 Q00731-2:27-190); assay: filter; binds equally well to human and murine VEGF; conditions: tags: carrier-free, Sf 21 insect cell expressed, R & D Systems; chain copies: 2 (inferred)
T2 sequence: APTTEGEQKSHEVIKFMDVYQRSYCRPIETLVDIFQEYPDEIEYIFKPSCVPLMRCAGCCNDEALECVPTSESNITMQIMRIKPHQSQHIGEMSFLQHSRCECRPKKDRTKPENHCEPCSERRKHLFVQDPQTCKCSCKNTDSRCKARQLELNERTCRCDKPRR
Method: as §1
(§3) VEGF is a highly conserved protein across species, the human VEGF₁₆₅ and mouse VEGF₁₆₄ isoforms showing 88% sequence identity. The truncated, 2′-OMe-substituted ligands bound equally well to human and murine VEGF. […] Heterodimers between VEGF and PIGF have recently been isolated from the supernatants of both normal and tumor-derived cell lines, and such heterodimers show activity in binding to one of two high affinity VEGF receptors and in inducing responses in cultured endothelial cells. […]

[3] = target: VEGF121 (Homo sapiens, UniProt P15692-9 P15692-9:27-147); assay: filter; no measurable affinity; conditions: tags: carrier-free, E. coli expressed, R & D Systems; chain copies: 2 (inferred)
[4] = target: T1, VEGF165; assay: filter; divalent cations replaced with EGTA; CaCl2 restores binding, MgCl2 does not; conditions: tags: carrier-free, Sf 21 insect cell expressed, R & D Systems; chain copies: 2 (inferred)
Method: as §1
Ligands in Families 1 and 2 were selected in the presence of magnesium cations while Family 3 ligands were selected in a buffer containing both magnesium and calcium. Since divalent cations may contribute to RNA/protein interactions through nonspecific or specific stabilization of high affinity RNA structures, we asked whether magnesium and/or calcium were required for the high affinity binding of representative ligands to VEGF.

[5] = target: T3, PlGF (UniProt P49763-2 P49763-2:19-149); assay: filter; no binding to PlGF homodimer; conditions: tags: carrier-free, E. coli expressed, R & D Systems; chain copies: 2 (stated homodimer)
T3 sequence: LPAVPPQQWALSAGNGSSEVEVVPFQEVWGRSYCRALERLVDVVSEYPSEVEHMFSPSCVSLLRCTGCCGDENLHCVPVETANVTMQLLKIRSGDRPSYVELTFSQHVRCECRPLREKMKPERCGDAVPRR
Method: as §1
VEGF is a highly conserved protein across species, the human VEGF₁₆₅ and mouse VEGF₁₆₄ isoforms showing 88% sequence identity. The truncated, 2′-OMe-substituted ligands bound equally well to human and murine VEGF. […] Heterodimers between VEGF and PIGF have recently been isolated from the supernatants of both normal and tumor-derived cell lines, and such heterodimers show activity in binding to one of two high affinity VEGF receptors and in inducing responses in cultured endothelial cells. The biological relevance of VEGF/PIGF heterodimers is unknown. […] Alternatively, the structure of the VEGF subunit may be altered by participation in a heterodimer with PIGF with consequent distortion of the Nucleic Acid Ligand binding surface.

[6] = target: T1, VEGF165; assay: filter; s.d. 36; 37 C; divalent cation independent; conditions: tags: carrier-free, Sf 21 insect cell expressed, R & D Systems; chain copies: 2 (inferred)
Method: as §1, §2

[7] = target: T2, VEGF164; assay: filter; bound equally well to human and murine VEGF; conditions: tags: carrier-free, Sf21-expressed, R&D Systems; chain copies: 2
Method: as §1, §3

[8] = target: T1, VEGF165; assay: filter; 37 C; variable region ends GGCT in table, GGGU in listing; conditions: tags: carrier-free, Sf 21 insect cell expressed, R & D Systems; chain copies: 2 (inferred)
Method: as §1

[9] = target: T1, VEGF165; assay: filter; 37 C; variable region starts CCCC in table, CGCC in listing; conditions: tags: carrier-free, Sf 21 insect cell expressed, R & D Systems; chain copies: 2 (inferred)
Method: as §1

[10] = target: T1, VEGF165; assay: filter; s.d. 50; 37 C; divalent cation independent; conditions: tags: carrier-free, Sf 21 insect cell expressed, R & D Systems; chain copies: 2 (inferred)
Method: as §1, §2

VEGF121, sequence (P15692 other isoform, or with tags, fused parts or gaps): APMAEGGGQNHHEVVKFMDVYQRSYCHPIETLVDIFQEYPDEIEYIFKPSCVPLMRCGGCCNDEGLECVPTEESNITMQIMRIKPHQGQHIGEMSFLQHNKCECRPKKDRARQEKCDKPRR

**Q.** For CGGAAUCAGUGAAUGCUUAUACAUCCG (ssRNA, 2'-F pyrimidines, 2'-OMe purines except 2'-OH A4, A5) [t44-OMe], which Kd [1] is on record?
**A.** The Kd was 0.051 nM.

**Q.** Does CGGAAUCAGUGAAUGCUUAUACAUCCG (ssRNA, 2'-F pyrimidines, 2'-OMe purines except 2'-OH A4, A5) [t44-OMe] bind [2]?
**A.** Result: binds

**Q.** Does CGGAAUCAGUGAAUGCUUAUACAUCCG (ssRNA, 2'-F pyrimidines, 2'-OMe purines except 2'-OH A4, A5) [t44-OMe] bind [3]?
**A.** Result: no binding

**Q.** What about the Kd [4] of the same binder?
**A.** Its Kd is greater than 100 nM.

**Q.** Does CGGAAUCAGUGAAUGCUUAUACAUCCG (ssRNA, 2'-F pyrimidines, 2'-OMe purines except 2'-OH A4, A5) [t44-OMe] bind [5]?
**A.** Result: no binding

**Q.** Does GCGGUAGGAAGAAUUGGAAGCGC (ssRNA, 2'-F pyrimidines, 2'-OMe purines except 2'-OH G4, A6) bind [3]?
**A.** Result: no binding

**Q.** And the Kd [6]?
**A.** The Kd was 0.067 nM.

**Q.** Does GCGGUAGGAAGAAUUGGAAGCGC (ssRNA, 2'-F pyrimidines, 2'-OMe purines except 2'-OH G4, A6) bind [5]?
**A.** Result: no binding

**Q.** Does GCGGUAGGAAGAAUUGGAAGCGC (ssRNA, 2'-F pyrimidines; 2'-OMe purines except 2'-OH G4 and A6) bind [7]?
**A.** Result: binds

B1: VP40.39 (ssRNA)
RNA: GGGAGGACGAUGCGGCAGUUAAUUAACUUGAGUUGUGAUGUGUGUCGUUAUGGGUCAGACGACUCGCCCGA
modifications: 2'-F pyrimidines
**Q.** With B1 as the binder, how does the Kd [8] read?
**A.** Its Kd is 73 nM.

B2: VP30.29 (ssRNA)
RNA: GGGAGGACGAUGCGGCGCCACUUUGGAAGUUAUUGAAUUUCGCGUCAGACGACUCGCCCGA
modifications: 2'-F pyrimidines
**Q.** How did the Kd [9] turn out when B2 was run?
**A.** Its Kd is 0.007 nM.

**Q.** With GCGAACCGAUGGAAUUUUUGGACGCUCGC (ssRNA, 2'-F pyrimidines, 2'-OMe purines except 2'-OH A5, G20) as the binder, how does the Kd [10] read?
**A.** Its Kd is 0.14 nM.

**Q.** Does GCGAACCGAUGGAAUUUUUGGACGCUCGC (ssRNA, 2'-F pyrimidines, 2'-OMe purines except 2'-OH A5, G20) bind [3]?
**A.** Result: no binding

**Q.** Does GCGAACCGAUGGAAUUUUUGGACGCUCGC (ssRNA, 2'-F pyrimidines, 2'-OMe purines except 2'-OH A5, G20) bind [5]?
**A.** Result: no binding

**Q.** Does GCGAACCGAUGGAAUUUUUGGACGCUCGC (ssRNA, 2'-F pyrimidines; 2'-OMe purines except 2'-OH A5 and G20) bind [7]?
**A.** Result: binds
